Data taken from article PMC7465474, “Interplay of Structural Disorder and Short Binding Elements in the Cellular Chaperone Function of Plant Dehydrin ERD14” (Cells, 2020).

Biological target: T1, citrate synthase (CS) (E. coli (endogenous in AVB101), UniProt P0ABH7 1-427)
T1 sequence (looked up): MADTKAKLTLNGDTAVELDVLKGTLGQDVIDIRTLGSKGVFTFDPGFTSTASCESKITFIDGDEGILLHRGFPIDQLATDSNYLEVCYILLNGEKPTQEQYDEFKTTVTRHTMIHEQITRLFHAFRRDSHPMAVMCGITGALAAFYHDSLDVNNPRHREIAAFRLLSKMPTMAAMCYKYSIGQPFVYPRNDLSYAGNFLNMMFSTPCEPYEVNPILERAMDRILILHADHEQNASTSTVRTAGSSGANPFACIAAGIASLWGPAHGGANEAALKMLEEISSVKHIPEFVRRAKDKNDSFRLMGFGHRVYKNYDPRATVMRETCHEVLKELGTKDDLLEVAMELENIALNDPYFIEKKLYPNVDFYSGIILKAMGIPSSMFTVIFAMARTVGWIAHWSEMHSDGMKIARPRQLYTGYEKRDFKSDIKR
Assay: cell-based or functional assay

B1: Early Response to Dehydration 14 (ERD14) of A. thaliana, wild type, biotinylated in the cell (natural protein, UniProt P42763 1-185, looked up)
chain: MAEEIKNVPEQEVPKVATEESSAEVTDRGLFDFLGKKKDETKPEETPIASEFEQKVHISEPEPEVKHESLLEKLHRSDSSSSSSSEEEGSDGEKRKKKKEKKKPTTEVEVKEEEKKGFMEKLKEKLPGHKKPEDGSAVAAAPVVVPPPVEEAHPVEKKGILEKIKEKLPGYHPKTTVEEEKKDKE
modifications: biotin (in-cell biotinylation)
  enthalpy change of unfolding (ΔHm) of 2 μM CS, two-state fit of the CD thermal denaturation, with 2, 5 and 13 μM purified WT ERD14 (396 falling to 316 kJ/mol; CS alone 475 kJ/mol): 94.6 kcal/mol
  melting temperature (Tm) of 2 μM CS, thermal denaturation followed by CD at 220 nm, with 2, 5 and 13 μM purified WT ERD14 (50.5 to 55.3 °C; CS alone 49.5 °C): 55.3 °C
